Source: US20200317768A1 (published 2020)
Where a chain is given by its changes, count along the chain named.

What was measured:
Assay in all cases: SPR (Biacore), KD of SG1 / KD of variant;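 note: relative to parent M103205H795-SG1 carrying the SG1 human heavy chain constant region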
[1] = molecular target: T1, human FcγRIIb extracellular domain, C-terminal His-tag (human, UniProt P31994 43-217)
T1 construct: also called FcgRIIb (human); not shown: His-tag added to C-terminus
T1 sequence: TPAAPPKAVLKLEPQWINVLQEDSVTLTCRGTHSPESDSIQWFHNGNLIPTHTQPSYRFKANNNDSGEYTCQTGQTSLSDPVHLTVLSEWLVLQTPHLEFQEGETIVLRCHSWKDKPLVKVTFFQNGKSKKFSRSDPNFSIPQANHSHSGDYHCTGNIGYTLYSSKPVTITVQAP
Method: (§1) The kinetic analysis of interactions between these antibodies and FcγR was carried out using BIACORE® T200 or BIACORE® 4000 (GE Healthcare). HBS-EP+ (GE Healthcare) was used as the running buffer, and the measurement temperature was set to 25° C. A chip produced by immobilizing Protein A. Protein A/G or mouse anti-human IgG kappa light chain (BD Biosciences) onto a Series S Sensor Chip CM4 or CM5 (GE Healthcare) by the amine-coupling method was used. […] After the measurement, the antibody captured on the chip was washed off by allowing reaction with 10 mM glycine-HCl, pH1.5 and 25 mM NaOH so that the chip was regenerated and used repeatedly. The sensorgrams obtained as measurement results were analyzed by the 1:1 Langmuir binding model using the BIACORE® Evaluation Software to calculate the binding rate constant ka (L/mol/s) and dissociation rate constant kd (l/s), and the dissociation constant KD (mol/L) was calculated from these values. […] Regarding such interactions, KD values were calculated using the following 1:1 binding model described in BIACORE® T100 Software Handbook BR1006-48 Edition AE.
(§2) The behavior of interacting molecules according to the 1:1 binding model on BIACORE® can be described by Equation 1: Req=C·R max/(KD+C)+RI, wherein, Req is a plot of steady-state binding levels to analyte concentration. C is concentration, RI is bulk refractive index contribution in the sample, and Rmax is analyte binding capacity of the surface. When this equation is rearranged, KD can be expressed as Equation 2: KD=C·Rmax/(Req−RI)−C. KD can be calculated by substituting the values of Rmax, RI, and C into Equation 1 or Equation 2. From the current measurement conditions, RI=0, C=2 μmol/L can be used.

[2] = molecular target: T2, cynomolgus monkey FcγRIIb extracellular domain, C-terminal His-tag (cynomolgus monkey)
T2 construct: also called cyno FcγRIIb; cynoFcγRIIb; not shown: His-tag added to C-terminus
T2 chain: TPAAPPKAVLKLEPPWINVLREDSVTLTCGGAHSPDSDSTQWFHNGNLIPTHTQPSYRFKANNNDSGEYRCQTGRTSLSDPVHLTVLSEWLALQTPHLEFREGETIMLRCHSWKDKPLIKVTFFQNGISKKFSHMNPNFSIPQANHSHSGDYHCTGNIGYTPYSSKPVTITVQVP
Method: as §1, §2

[3] = molecular target: T3, human FcγRIIIaV extracellular domain, C-terminal His-tag (human, UniProt P08637 17-208)
T3 construct: also called FcgRIIIaV; not shown: His-tag added to C-terminus
Method: as §1, §2

[4] = molecular target: T4, cynomolgus monkey FcγRIIa2 extracellular domain, C-terminal His-tag (cynomolgus monkey)
T4 construct: also called cyno FcγRIIa2; cynoFcgRIIa2; not shown: His-tag added to C-terminus
T4 chain: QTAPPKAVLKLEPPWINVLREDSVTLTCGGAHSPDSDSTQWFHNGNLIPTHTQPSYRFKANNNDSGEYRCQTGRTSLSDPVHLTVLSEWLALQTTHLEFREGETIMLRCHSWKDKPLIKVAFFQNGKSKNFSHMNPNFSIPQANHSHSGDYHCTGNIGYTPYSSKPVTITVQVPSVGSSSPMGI
Method: as §1, §2

[5] = molecular target: T5, human FcγRIIaH extracellular domain, C-terminal His-tag (human, UniProt P12318 34-217)
T5 construct: also called human FcγRIIa (type H); FcgRIIaH; not shown: His-tag added to C-terminus
T5 sequence: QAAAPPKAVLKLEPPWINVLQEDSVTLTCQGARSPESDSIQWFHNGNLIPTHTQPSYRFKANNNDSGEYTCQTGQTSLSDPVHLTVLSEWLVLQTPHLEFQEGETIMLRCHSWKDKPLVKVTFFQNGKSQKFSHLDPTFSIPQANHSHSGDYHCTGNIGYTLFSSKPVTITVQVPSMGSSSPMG
Method: as §1, §2

[6] = molecular target: T6, human FcγRIIaR extracellular domain, C-terminal His-tag (human, UniProt P12318 34-217)
T6 construct: also called human FcγRIIa (type R); FcgRIIaR; not shown: His-tag added to C-terminus
T6 chain: T5 sequence with H134R
Method: as §1, §2

[7] = molecular target: T7, cynomolgus monkey FcγRIIa3 extracellular domain, C-terminal His-tag (cynomolgus monkey)
T7 construct: also called cyno FcγRIIa3; cynoFcgRIIa3; not shown: His-tag added to C-terminus
T7 chain: T4 chain with K127I, N130K, H133P, Q142R
Method: as §1, §2

[8] = molecular target: T8, cynomolgus monkey FcγRIIa1 extracellular domain, C-terminal His-tag (cynomolgus monkey)
T8 construct: also called cyno FcγRIIa1; cynoFcgRIIa1; not shown: His-tag added to C-terminus
T8 chain: T4 chain with T95P, A121T, K127I, S128A, N130K, N135D, Q142R
Method: as §1, §2

T3 sequence (P08637 17-208 F176V): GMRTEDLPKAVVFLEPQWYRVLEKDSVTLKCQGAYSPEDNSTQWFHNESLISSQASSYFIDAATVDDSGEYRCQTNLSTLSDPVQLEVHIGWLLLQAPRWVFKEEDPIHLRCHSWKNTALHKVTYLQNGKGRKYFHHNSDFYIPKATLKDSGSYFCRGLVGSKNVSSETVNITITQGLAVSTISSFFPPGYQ

B1: MS_M103205H795-SG1/M103202L889-SK1 (antibody, human IgG1, kappa)
heavy: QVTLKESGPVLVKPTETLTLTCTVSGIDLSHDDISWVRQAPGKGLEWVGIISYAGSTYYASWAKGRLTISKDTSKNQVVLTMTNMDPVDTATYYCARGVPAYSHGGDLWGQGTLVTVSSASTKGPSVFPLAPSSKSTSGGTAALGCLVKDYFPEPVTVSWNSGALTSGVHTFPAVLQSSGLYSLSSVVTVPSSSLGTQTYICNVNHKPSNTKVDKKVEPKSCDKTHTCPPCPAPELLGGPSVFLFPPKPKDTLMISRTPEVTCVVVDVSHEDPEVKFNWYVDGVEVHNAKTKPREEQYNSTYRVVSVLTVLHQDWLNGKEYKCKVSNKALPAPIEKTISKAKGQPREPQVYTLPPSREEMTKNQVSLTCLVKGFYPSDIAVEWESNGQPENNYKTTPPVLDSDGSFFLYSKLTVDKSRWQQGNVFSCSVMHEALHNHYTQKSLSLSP
light: DIVMTQSPATLSLSPGERATLSCTSSQSVYHANWLSWFQQKPGQPPKLLIYWASTLAYGVPSRFSGSGSGTDFTLTISSLQPEDAATYYCAGGYGGGRYAFGQGTKVEIKRTVAAPSVFIFPPSDEQLKSGTASVVCLLNNFYPREAKVQWKVDNALQSGNSQESVTEQDSKDSTYSLSSTLTLSKADYEKHKVYACEVTHQGLSSPVTKSFNRGEC
notes: Parent antibody; also called MS1032LO06-SG1
KD fold (SG1 = 1) [1]: 1 fold | KD fold (SG1 = 1) [2]: 1 fold | KD fold (SG1 = 1) [3]: 1 fold | KD fold (SG1 = 1) [4]: 1 fold | KD fold (SG1 = 1) [5]: 1 fold | KD fold (SG1 = 1) [6]: 1 fold | KD fold (SG1 = 1) [7]: 1 fold | KD fold (SG1 = 1) [8]: 1 fold

B2: M103205H795-MY142/M103202L889-SK1 (antibody, human IgG1, kappa)
heavy: QVTLKESGPVLVKPTETLTLTCTVSGIDLSHDDISWVRQAPGKGLEWVGIISYAGSTYYASWAKGRLTISKDTSKNQVVLTMTNMDPVDTATYYCARGVPAYSHGGDLWGQGTLVTVSSASTKGPSVFPLAPSSKSTSGGTAALGCLVKDYFPEPVTVSWNSGALTSGVHTFPAVLQSSGLYSLSSVVTVPSSSLGTQTYICNVNHKPSNTKVDKKVEPKSCDKTHTCPPCPAPELLEGPSVFLFPPKPKDTLMISRTPEVTCVVVDVSEEDPEVKFNWYVDGVEVHNAKTKPREEQYNSTYRVVSVLTVLHQDWLNGKEYKCKVSNKALPAPIEKTISKAKGQPREPQVYTLPPSREEMTKNQVSLTCLVKGFYPSDIAVEWESNGQPENNYKTTPMVLDSDGSFFLYSKLTVDKSRWQQGNVFSCSVMHEALHNHYTQKSLSLSP
light: B1 light
KD fold (SG1 = 1) [1]: 4.8 fold | KD fold (SG1 = 1) [2]: 1 fold | KD fold (SG1 = 1) [3]: 1.4 fold | KD fold (SG1 = 1) [4]: 1 fold | KD fold (SG1 = 1) [5]: 3.6 fold | KD fold (SG1 = 1) [6]: 6.5 fold | KD fold (SG1 = 1) [7]: 0.7 fold | KD fold (SG1 = 1) [8]: 0.8 fold

B3: M103205H795-MY143/M103202L889-SK1 (antibody, human IgG1, kappa)
heavy: B2 heavy with E238S
light: B1 light
KD fold (SG1 = 1) [1]: 6.3 fold | KD fold (SG1 = 1) [2]: 8.9 fold | KD fold (SG1 = 1) [3]: 0.52 fold | KD fold (SG1 = 1) [4]: 3.9 fold | KD fold (SG1 = 1) [5]: 18.6 fold | KD fold (SG1 = 1) [6]: 13.3 fold | KD fold (SG1 = 1) [7]: 5.9 fold | KD fold (SG1 = 1) [8]: 2.9 fold

B4: M103205H795-MY209/M103202L889-SK1 (antibody, human IgG1, kappa)
heavy: B2 heavy with E238N, E270D, Q297L, K328T, A332K, M398P
light: B1 light
KD fold (SG1 = 1) [1]: 9.2 fold | KD fold (SG1 = 1) [2]: 9.5 fold | KD fold (SG1 = 1) [3]: 0.06 fold | KD fold (SG1 = 1) [4]: 7.4 fold | KD fold (SG1 = 1) [5]: 1.2 fold | KD fold (SG1 = 1) [6]: 1.3 fold | KD fold (SG1 = 1) [7]: 8.9 fold | KD fold (SG1 = 1) [8]: 5.1 fold

B5: M103205H795-MY213/M103202L889-SK1 (antibody, human IgG1, kappa)
heavy: B2 heavy with E238N, E270D, A332K, M398K
light: B1 light
KD fold (SG1 = 1) [1]: 12.8 fold | KD fold (SG1 = 1) [2]: 11.9 fold | KD fold (SG1 = 1) [3]: 0.03 fold | KD fold (SG1 = 1) [4]: 9.6 fold | KD fold (SG1 = 1) [5]: 2 fold | KD fold (SG1 = 1) [6]: 1.6 fold | KD fold (SG1 = 1) [7]: 13.1 fold | KD fold (SG1 = 1) [8]: 6 fold

B6: M103205H795-MY219/M103202L889-SK1 (antibody, human IgG1, kappa)
heavy: B2 heavy with E238G, G239Y, E270D, A332K, M398P
light: B1 light
KD fold (SG1 = 1) [1]: 13.5 fold | KD fold (SG1 = 1) [2]: 1.4 fold | KD fold (SG1 = 1) [3]: 0.03 fold | KD fold (SG1 = 1) [4]: 1.3 fold | KD fold (SG1 = 1) [5]: 0.2 fold | KD fold (SG1 = 1) [6]: 6.9 fold | KD fold (SG1 = 1) [7]: 3.1 fold | KD fold (SG1 = 1) [8]: 0.5 fold

B7: M103205H795-MY227/M103202L889-SK1 (antibody, human IgG1, kappa)
heavy: B2 heavy with E238G, G239Y, E270D, A332K, M398K
light: B1 light
KD fold (SG1 = 1) [1]: 35.4 fold | KD fold (SG1 = 1) [2]: 3.5 fold | KD fold (SG1 = 1) [3]: 0.04 fold | KD fold (SG1 = 1) [4]: 2 fold | KD fold (SG1 = 1) [5]: 0.5 fold | KD fold (SG1 = 1) [6]: 17.7 fold | KD fold (SG1 = 1) [7]: 6.3 fold | KD fold (SG1 = 1) [8]: 1.7 fold

B8: M103205H795-MY228/M103202L889-SK1 (antibody, human IgG1, kappa)
heavy: B2 heavy with E238G, G239Y, E270D, Q297L, A332K, M398P
light: B1 light
KD fold (SG1 = 1) [1]: 15.3 fold | KD fold (SG1 = 1) [2]: 1.6 fold | KD fold (SG1 = 1) [3]: 0.02 fold | KD fold (SG1 = 1) [4]: 1 fold | KD fold (SG1 = 1) [5]: 0.3 fold | KD fold (SG1 = 1) [6]: 6.5 fold | KD fold (SG1 = 1) [7]: 4.7 fold | KD fold (SG1 = 1) [8]: 1.1 fold

B9: M103205H795-MY229/M103202L889-SK1 (antibody, human IgG1, kappa)
heavy: B2 heavy with E238G, G239Y, E270D, Q297L, A332K, M398K
light: B1 light
KD fold (SG1 = 1) [1]: 30.7 fold | KD fold (SG1 = 1) [2]: 3.8 fold | KD fold (SG1 = 1) [3]: 0.02 fold | KD fold (SG1 = 1) [4]: 2.3 fold | KD fold (SG1 = 1) [5]: 0.7 fold | KD fold (SG1 = 1) [6]: 13 fold | KD fold (SG1 = 1) [7]: 8.5 fold | KD fold (SG1 = 1) [8]: 2 fold

B10: M103205H795-MY242/M103202L889-SK1 (antibody, human IgG1, kappa)
heavy: B2 heavy with E238G, P240I, E270D, A332K, M398K
light: B1 light
KD fold (SG1 = 1) [1]: 2.4 fold | KD fold (SG1 = 1) [2]: 1.6 fold | KD fold (SG1 = 1) [3]: 0.25 fold | KD fold (SG1 = 1) [4]: 1.2 fold | KD fold (SG1 = 1) [5]: 0.8 fold | KD fold (SG1 = 1) [6]: 1.7 fold | KD fold (SG1 = 1) [7]: 2.9 fold | KD fold (SG1 = 1) [8]: 0.7 fold

B11: M103205H795-MY269/M103202L889-SK1 (antibody, human IgG1, kappa)
heavy: B2 heavy with E238M, E270D, A332K, M398K
light: B1 light
KD fold (SG1 = 1) [1]: 2.2 fold | KD fold (SG1 = 1) [2]: 2.8 fold | KD fold (SG1 = 1) [3]: 0.74 fold | KD fold (SG1 = 1) [4]: 2 fold | KD fold (SG1 = 1) [5]: 2.3 fold | KD fold (SG1 = 1) [6]: 1.5 fold | KD fold (SG1 = 1) [7]: 2.7 fold | KD fold (SG1 = 1) [8]: 1.4 fold
